Data: paper PMC5177617, “Complement Protein C1q Interacts with DC-SIGN via Its Globular Domain and Thus May Interfere with HIV-1 Transmission” (Frontiers in Immunology, 2016)

What was measured:
[1] = target: soluble DC-SIGN tetramer (entire extracellular domain including the α-helical neck region) (UniProt Q9NNX6); experiment: ELISA; DC-SIGN or DC-SIGNR (tetramer or monomer) coated (5, 2.5, 1.25, 0.625 µg/well, carbonate-bicarbonate buffer pH 9.6); ghA, ghB, ghC or mutants 2.5 µg/100 µl in 50 mM NaCl, 100 mM Tris-HCl pH 7.5, 5 mM CaCl2; 37°C […] then 4°C […]; detected with anti-MBP; percent binding against the wild-type module as 100%
[2] = target: soluble DC-SIGNR tetramer (entire extracellular domain including the α-helical neck region) (UniProt Q9H2X3); experiment: as above
[3] = target: T1, soluble DC-SIGN tetramer (entire extracellular domain including the α-helical neck region) (UniProt Q9NNX6 59-404); experiment: ELISA; DC-SIGN or DC-SIGNR (tetramer or monomer) coated (5, 2.5, 1.25, 0.625 µg/well, carbonate-bicarbonate buffer pH 9.6); ghA, ghB, ghC or mutants 2.5 µg/100 µl in 50 mM NaCl, 100 mM Tris-HCl pH 7.5, 5 mM CaCl2; 37°C 1.5 h then 4°C 1.5 h; detected with anti-MBP; percent binding against the wild-type module as 100%; conditions: both partners purified
T1 construct: DC-SIGN, entire extracellular domain (α-helical neck region and carbohydrate recognition domain); also called DC-SIGN ECD; tetrameric DC-SIGN
T1 sequence (looked up): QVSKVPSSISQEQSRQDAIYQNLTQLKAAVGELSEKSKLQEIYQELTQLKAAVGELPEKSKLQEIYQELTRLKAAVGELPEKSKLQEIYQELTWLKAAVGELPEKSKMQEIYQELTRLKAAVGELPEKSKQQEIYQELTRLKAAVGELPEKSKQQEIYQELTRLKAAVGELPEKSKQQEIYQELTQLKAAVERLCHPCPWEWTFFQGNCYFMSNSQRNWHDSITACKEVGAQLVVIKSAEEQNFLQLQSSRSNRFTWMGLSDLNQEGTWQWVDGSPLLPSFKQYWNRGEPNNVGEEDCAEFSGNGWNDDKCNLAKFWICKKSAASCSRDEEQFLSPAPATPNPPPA

[4] = target: T2, soluble DC-SIGNR tetramer (entire extracellular domain including the α-helical neck region) (UniProt Q9H2X3 71-399); experiment: as above; conditions: both partners purified
T2 construct: DC-SIGNR (DC-SIGN-related), entire extracellular domain (α-helical neck region and carbohydrate recognition domain); also called DC-SIGNR ECD
T2 sequence (looked up): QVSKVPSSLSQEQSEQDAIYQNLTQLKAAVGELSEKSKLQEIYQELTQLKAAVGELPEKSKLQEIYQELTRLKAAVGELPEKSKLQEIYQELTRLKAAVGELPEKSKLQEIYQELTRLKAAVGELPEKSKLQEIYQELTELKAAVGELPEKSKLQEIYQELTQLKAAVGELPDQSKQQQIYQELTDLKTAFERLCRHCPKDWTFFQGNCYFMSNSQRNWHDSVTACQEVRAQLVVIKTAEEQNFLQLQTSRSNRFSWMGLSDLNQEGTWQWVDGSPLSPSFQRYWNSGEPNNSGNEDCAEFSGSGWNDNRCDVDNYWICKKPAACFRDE

| Molecule | % binding (wild-type module = 100%) [1] [%] | % binding (wild-type module = 100%) [2] [%] | further results |
| --- | --- | --- | --- |
| ghA substitution mutant Arg^A162Ala (from UniProt P02745 23-245) (domain or fragment) | 77.7 | 73.2 |  |
| ghA substitution mutant Arg^A162Glu (from UniProt P02745 23-245) (domain or fragment) | 66.4 | 94.8 | % reduction in binding against wild-type ghA (at 5 µg of DC-SIGNR) [2]: 15% |
| ghB substitution mutant ArgB114Ala (from UniProt P02746 28-253) (domain or fragment) | 57.4 | 61.4 | % reduction in binding against wild-type ghB [1]: 80% |
| ghB substitution mutant Arg^B114Gln (from UniProt P02746 28-253) (domain or fragment) | 52.5 | 50.3 | % reduction in binding against wild-type ghB [1]: 80% |
| ghB substitution mutant Arg^B129Ala (from UniProt P02746 28-253) (domain or fragment) | 75 | 92.5 |  |
| ghB substitution mutant Arg^B129Glu (from UniProt P02746 28-253) (domain or fragment) | 93.9 | 137 |  |
| ghB substitution mutant Arg^B163Ala (from UniProt P02746 28-253) (domain or fragment) | 68.8 | 120 |  |
| ghB substitution mutant Arg^B163Glu (from UniProt P02746 28-253) (domain or fragment) | 48.3 | 65.7 |  |
| ghB substitution mutant His^B117Asp (from UniProt P02746 28-253) (domain or fragment) | 36.4 | 41 |  |
| ghB substitution mutant Tyr^B175Leu (from UniProt P02746 28-253) (domain or fragment) | 37.9 | 37.2 | % decrease in binding against wild-type ghB (at 0.625 µg of DC-SIGN) [1]: < 90%; % reduction in binding against wild-type ghB [1]: 82%; % decrease in binding against wild-type ghB (at 0.625 µg of DC-SIGNR) [2]: < 90% |
| ghC substitution mutant Arg^156Glu (from UniProt P02747 29-245) (domain or fragment) | 101 | 75.8 |  |
| ghC substitution mutant His^101Ala (from UniProt P02747 29-245) (domain or fragment) | 90.2 | 113 |  |
| ghC substitution mutant Leu^170Glu (domain or fragment) | 78.3 | 79.8 |  |
| recombinant globular head module ghA of human C1q, fused to maltose-binding protein (domain or fragment, UniProt P02745 110-245, looked up, globular head region of the A chain of human C1q (ghA module); as I recall ghA is residues 88-223 of the mature A chain with MBP at the N-terminus; source: E. coli BL21, purified (amylose resin)) KDQPRPAFSAIRRNPPMGGNVVIFDTVITNQEEPYQNHSGRFVCTVPGYYYFTFQVLSQWEICLSIVSSSRGQVRRSLGFCDTTNKGLFQVVSGGMVLQLQQGDQVWVEKDPKKGHIYQGSEADSVFSGFLIFPSA |  |  | % binding (wild-type module = 100%) [3]: 100%; % binding (wild-type module = 100%) [4]: 100% |
| recombinant globular head module ghB of human C1q, fused to maltose-binding protein (domain or fragment, UniProt P02746 117-253, looked up, globular head region of the B chain of human C1q (ghB module); source: E. coli BL21, purified (amylose resin)) KATQKIAFSATRTINVPLRRDQTIRFDHVITNMNNNYEPRSGKFTCKVPGLYYFTYHASSRGNLCVNLMRGRERAQKVVTFCDYAYNTFQVTTGGMVLKLEQGENVFLQATDKNSLLGMEGANSIFSGFLLFPDMEA |  |  | % binding (wild-type module = 100%) [3]: 100%; % binding (wild-type module = 100%) [4]: 100% |
| ghB substitution mutant Leu^B136Gly (domain or fragment) KATQKIAFSATRTINVPLRRDQTIRFDHVITNMNNNYEPRSGKFTCGVPGLYYFTYHASSRGNLCVNLMRGRERAQKVVTFCDYAYNTFQVTTGGMVLKLEQGENVFLQATDKNSLLGMEGANSIFSGFLLFPDMEA |  |  | % binding (wild-type module = 100%) [3]: 47.7%; % binding (wild-type module = 100%) [4]: 54% |
| recombinant globular head module ghC of human C1q, fused to maltose-binding protein (domain or fragment, UniProt P02747 115-245, looked up, globular head region of the C chain of human C1q (ghC module); as I recall ghC is residues 87-217 of the mature C chain with MBP at the N-terminus; source: E. coli BL21, purified (amylose resin)) KQKFQSVFTVTRQTHQPPAPNSLIRFNAVLTNPQGDYDTSTGKFTCKVPGLYYFVYHASHTANLCVLLYRSGVKVVTFCGHTSKTNQVNSGGVLLRLQVGEEVWLAVNDYYDMVGIQGSDSVFSGFLLFPD |  |  | % binding (wild-type module = 100%) [3]: 100%; % binding (wild-type module = 100%) [4]: 100% |
